Laboratory results: US20150246949A1, “Desmoglein 2 (DSG2) Binding Proteins and Uses Therefor” (UNIVERSITY OF WASHINGTON THROUGH ITS CENTER FOR …, priority 2012, published 2015)
Changes are numbered by the printed parent chain. Names and notes keep the numbering of the source.

What was measured:
[1] = target: human DSG2 on cells (HeLa cells; polarized T84 cells) (human) (UniProt Q14126); test: attachment of 3H-labelled Ad3 virus (competitor) to HeLa cells pre-incubated with the dimeric knob
[2] = target: human DSG2 on cells (HeLa cells; polarized T84 cells) (human) (UniProt Q14126); test: cell-based or functional assay
soluble recombinant DSG2 = target: T1, soluble recombinant DSG2 (Homo sapiens, UniProt Q14126); test: Western blot of dimeric Ad3 fiber knob mutants probed with soluble DSG2; format: binding; conditions: purified dimerized knob mutants
T1 construct: purchased Leinco Technologies, Inc. (St. Louis, Mo.)
T1 sequence (Q14126 50-609 limits assumed): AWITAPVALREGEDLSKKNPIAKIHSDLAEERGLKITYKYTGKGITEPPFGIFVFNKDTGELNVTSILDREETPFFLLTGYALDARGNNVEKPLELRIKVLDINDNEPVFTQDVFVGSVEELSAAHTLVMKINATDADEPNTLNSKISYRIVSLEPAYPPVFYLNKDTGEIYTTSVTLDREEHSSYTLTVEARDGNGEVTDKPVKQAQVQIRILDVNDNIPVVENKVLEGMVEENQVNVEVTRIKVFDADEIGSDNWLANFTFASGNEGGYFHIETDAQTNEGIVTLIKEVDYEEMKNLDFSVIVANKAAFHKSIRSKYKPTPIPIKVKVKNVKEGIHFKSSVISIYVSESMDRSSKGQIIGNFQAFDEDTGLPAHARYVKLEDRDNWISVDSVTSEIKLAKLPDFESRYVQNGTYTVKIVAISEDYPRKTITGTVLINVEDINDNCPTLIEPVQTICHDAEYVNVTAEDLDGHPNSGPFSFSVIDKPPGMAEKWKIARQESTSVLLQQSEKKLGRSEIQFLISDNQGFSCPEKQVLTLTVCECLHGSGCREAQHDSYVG
From the text: FIG. 1. Residues found to be critically involved in binding to DSG2. A) Shown are the amino acid sequences of the Ad3 and Ad14p1 fiber knob. Beta sheets present in the Ad3 knob (PDB accession number 1H7Z_A) and Ad14 knob (PDB: 3F0Y_A) are indicated by lines. Black arrows indicate residues within the Ad3 fiber knob which, when mutated individually, ablate or reduce binding to DSG2. […] B) Schematic structure of dimeric Ad3 fiber knob mutants. The fiber knob domain and one shaft motif was fused through a flexible linker to a homodimerizing K-coil domain (41). The proteins are self-dimerizing and can be purified by His-Ni-NTA affinity chromatography. C-F) Analysis of binding of dimeric Ad3 fiber knob mutants to soluble DSG2. C and D) Coomassie staining. 10 μg of purified Ad3 fiber knob (unboiled) were loaded per lane. Trimeric forms of the fiber knobs are indicated by an arrow. The gel contained SDS and the loading buffer containing DTT, which caused the disassembly of dimers of trimeric fiber knobs as previously reported (41). E and F): Western blot using soluble recombinant DSG2 as a probe, followed by anti-DSG2-mAb and anti-mouse IgG-HRP. For comparison, JO-1 (0.5 μg/lane) is shown. The Western blots were scanned and signals were quantified.
Mini-PROTEAN precast gels (BIO-RAD, Hercules, Calif.) with 4-15% gradient polyacrylamide were used. A total of […] protein mixed with 2× loading buffer (10 mM Tris-HCl, pH6.8, 200 mM DTT, 4% SDS, 20% glycerol, 0.2% bromophenol blue) was loaded per lane. Samples were either boiled (B) for 5 min or loaded unboiled (UB). The following running buffer was used: 25 mM Tris, pH8.3, 0.192 M glycine, 0.1% SDS. After electrophoresis, proteins were transferred to nitrocellulose and incubated with recombinant human DSG2 protein and anti-DSG2 antibodies as described previously (42). The Western blots were scanned and quantified using the ImageJ 1.32 software (National Institutes of Health, Bethesda, Md.). JO-1 band intensity was set as 100%. […]

3H-labeled Ad3 virus = test: Competition of 3H-labeled Ad3 virus attachment to HeLa cells; format: cell-based, adenovirus serotype 3 (Ad3)
Description: FIG. 3. Competition of Ad3 virus by dimerized Ad3 knob mutants. A) Relative attachment of ^3H-labeled Ad3 virus in the presence of dimeric fiber knob mutants. 1.8×10^5 HeLa cells were incubated with Ad3 knob mutants at a concentration of 2.5 and 100 μg/ml on ice for 1 hour. Then 400 pfu/cell of ^3H-Ad3 virus was added on ice for another hour. Unbound virus particles were washed away. Attachment of virus particles incubated with PBS was taken as 100%. N=3. B) Competition of Ad3-GFP virus infection on HeLa cells. 1.5×10^5 HeLa cells were seeded into 24 well plates. Cells were incubated with the Ad3 knob mutants at increasing concentrations for one hour at room temperature. 100 pfu/cell of Ad3-GFP virus were then added and GFP expression was analyzed 18 hours later by flow cytometry. Left panel: percentage of GFP positive cells. Right panel: mean fluorescence intensity. N=3. The standard deviation was less than 10%. C) Relative attachment of ^3H-labeled Ad3 virus in the presence of dimeric fiber knob mutants with multiple mutations. […]
HeLa cells were detached from culture dishes by incubation with Versene and washed with PBS. […] After the last wash, the supernatant was removed and the cell-associated radioactivity was determined by a scintillation counter. The number of VP bound per cell was calculated by using the virion specific radioactivity and the number of cells.

Ad3-GFP virus = test: Competition of Ad3-GFP virus infection on HeLa cells; format: cell-based, adenovirus serotype 3 (Ad3); conditions: HeLa cells; concentrations up to 200 ug/ml
Description: FIG. 3. Competition of Ad3 virus by dimerized Ad3 knob mutants. A) Relative attachment of ^3H-labeled Ad3 virus in the presence of dimeric fiber knob mutants. 1.8×10^5 HeLa cells were incubated with Ad3 knob mutants at a concentration of 2.5 and 100 μg/ml on ice for 1 hour. Then 400 pfu/cell of ^3H-Ad3 virus was added on ice for another hour. Unbound virus particles were washed away. Attachment of virus particles incubated with PBS was taken as 100%. N=3. B) Competition of Ad3-GFP virus infection on HeLa cells. 1.5×10^5 HeLa cells were seeded into 24 well plates. Cells were incubated with the Ad3 knob mutants at increasing concentrations for one hour at room temperature. 100 pfu/cell of Ad3-GFP virus were then added and GFP expression was analyzed 18 hours later by flow cytometry. Left panel: percentage of GFP positive cells. Right panel: mean fluorescence intensity. N=3. The standard deviation was less than 10%. C) Relative attachment of ^3H-labeled Ad3 virus in the presence of dimeric fiber knob mutants with multiple mutations. The study was performed as described in […]) The standard deviation was less than 10%. D) Competition of Ad3-GFP virus infection on HeLa cells. The study was performed as described in C) The standard deviation was less than 10%.
FIG. 9. Analysis of dimeric Ad3 fiber knob mutants with increased affinity to DSG2. A) Competition of Ad3-GFP virus infection on HeLa cells with dimeric affinity-enhanced mutant Y250F and JO-1 (dimeric wt Ad3 fiber knob). The experimental setting is as described for FIG. 3C. left panel: percentage of GFP positive cells. Right panel: mean fluorescence intensity. N=3. The standard deviation was less than 10%. […] 100 pfu/cell of Ad3GFP virus were then added and GFP expression was analyzed 18 hours later. […]
Competition studies were performed on HeLa cells, which express DSG2 (42). […] Transduction was measured based on GFP expression (FIG. 3B). […] Dimeric Ad3 knob mutants with combined mutations were also analyzed for their ability to compete with Ad3 virus for attachment (FIG. 3C) and infection (FIG. 3D).

DSG2 = target: T2, DSG2 (Homo sapiens, UniProt Q14126); test: Surface plasmon resonance of non-dimerized Ad3 fiber knobs on immobilized DSG2; format: binding; conditions: knobs without dimerization domain
T2 construct: purchased Leinco Technologies, Inc. (St. Louis, Mo.)
T2 sequence (Q14126 50-609 limits assumed): T1 sequence (Q14126 50-609 limits assumed)
Description: FIG. 7. SPR analysis of non-dimerized Ad3 fiber knob interactions with DSG2. A) DSG2 was immobilized on sensorchips, and background was automatically subtracted from the control flow cell. The Ad3 fiber knobs (w/o dimerization domain: “noDD”) were injected for 3 minutes at 2.5 μg/ml followed by a 2.5 minutes dissociation period. B) Summary of SPR data. […] The extracted data are resumed in the table. Wt=Ad3 fiber knob without mutations
Acquisitions were done on a BIAcore 3000 instrument. HBS-N (GE-Healthcare, Pittsburgh, Pa.) supplemented with 2 mM CaCl2 was used as running buffer in all experiments at a flow rate of 5 μl/min Immobilization on CM4 sensorchip (BIAcore) was performed using DSG2 at 10 μg/ml diluted in 10 mM Acetate buffer pH 4.5 injected for 10 minutes on ethyl(dimethylaminopropyl) carbodiimide (EDC)/N-Hydroxysuccinimide (NHS) activated flow-cell. A control flow-cell was activated by (EDC/NHS) and inactivated by ethanolamine Different concentrations of Ad3 fiber knob proteins were injected for 3 minutes association followed by 2.5 minutes dissociation time, and the signal was automatically subtracted from the background of the ethanolamine deactivated EDC-NHS flow cell. Kinetic and affinity constants were calculated using the BIAeval software.

## dimeric Ad3 fiber knob mutant N186D, D261N, L296R (designed binder)
[1]
  Inhibition of attachment in the presence of dimeric knob (JO-1 = 100%): 18.5%
[2]
  Inhibition of infection in the presence of dimeric knob (JO-1 = 100%): 0%

B1: N186D, D261N, L296R: dimeric Ad3 fiber knob with combination of all three N186D, D261N, and L296R (protein)
chain: MKVSALKEKVSALKEKVSALKEKVSALKEKVSALKEGSGGGSGGGSGGGSNSIALKNNTLWTGPKPEANCIIEYGKQNPDSKLTLILVKNGGIVNGYVTLMGASDYVNTLFKDKNVSINVELYFDATGHILPDSSSLKTDLELKYKQTADFSARGFMPSTTAYPFVLPNAGTHNENYIFGQCYYKASNGALFPLEVTVMLNKRLPDSRTSYVMTFLWSLNAGRAPETTQATLITSPFTFSYIREDD
Soluble recombinant DSG2
  DSG2 binding in Western blot compared to JO-1: highest level of ablation
3H-labeled Ad3 virus; Ad3 virus attachment to HeLa cells, N = 3
  Inhibition of attachment in the presence of dimeric knob (JO-1 = 100%): 18.5%
3H-labeled Ad3 virus; HeLa cells, concentrations up to 200 ug/ml
  Block of Ad3 binding: did not block
Ad3-GFP virus
  Block of Ad3 infection: did not block

B2: N293S/noDD (protein)
chain: NKLCSKLGNGLTFDSSNSIALKNNTLWTGPKPEANCIIEYGKQNPDSKLTLILVKNGGIVNGYVTLMGASDYVNTLFKNKNVSINVELYFDATGHILPDSSSLKTDLELKYKQTADFSARGFMPSTTAYPFVLPNAGTHNENYIFGQCYYKASDGALFPLEVTVMLNKRLPDSRTSYVMTFLWSLSAGLAPETTQATLITSPFTFSYIREDD
modifications: left off: small tags and cut ends
DSG2
  Association rate to DSG2: association rate was lowest

B3: wt Ad3 knob: wild-type trimeric Ad3 fiber knob without the dimerization domain (protein)
chain: B2 chain with S186N
modifications: left off: small tags and cut ends
notes: wild-type trimeric Ad3 fiber knob without the dimerization domain
DSG2
  Association rate to DSG2: slow association rate
